Experimental data as given in patent EP1292709B1.
Where no end group is shown, it is not given here.

Molecular target: receptors that recognize the sequence GRGDSPG
Test: cell-based or functional assay

- adhesion and spreading of human foreskin fibroblasts on conjugate addition gels, 6 hours post-seeding: 50%
B1: … (peptide)
peptide: GC(PEG acrylate)GYGRGDSPG
